# Data from publication PMC9060465, “Structural determinants of dual incretin receptor agonism by tirzepatide” (Proceedings of the National Academy of Sciences of the …, 2022).
# Tests used:
# [1] = molecular target: mouse GLP-1R, endogenous in pancreatic islets (mouse (endogenous in pancreatic islets)) (UniProt O35659)
# [2] = molecular target: human GLP-1R expressed in HEK293 cells (human) (UniProt P43220); assay: radioligand binding
# [3] = molecular target: isolated extracellular domain (ECD) of human GIPR, amino acids 26 to 138 (human) (UniProt P48546); assay: SPR
# Sequence of isolated extracellular domain (ECD) of human GIPR, amino acids 26 to 138 (human) (P48546 26-138): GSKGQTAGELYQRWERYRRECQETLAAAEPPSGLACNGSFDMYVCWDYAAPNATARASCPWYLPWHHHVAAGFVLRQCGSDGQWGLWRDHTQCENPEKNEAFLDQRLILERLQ
# [4] = molecular target: human GIPR expressed in HEK293 cells (human) (UniProt P48546); assay: radioligand binding
# Sequence of human GIPR expressed in HEK293 cells (human) (P48546 22-466): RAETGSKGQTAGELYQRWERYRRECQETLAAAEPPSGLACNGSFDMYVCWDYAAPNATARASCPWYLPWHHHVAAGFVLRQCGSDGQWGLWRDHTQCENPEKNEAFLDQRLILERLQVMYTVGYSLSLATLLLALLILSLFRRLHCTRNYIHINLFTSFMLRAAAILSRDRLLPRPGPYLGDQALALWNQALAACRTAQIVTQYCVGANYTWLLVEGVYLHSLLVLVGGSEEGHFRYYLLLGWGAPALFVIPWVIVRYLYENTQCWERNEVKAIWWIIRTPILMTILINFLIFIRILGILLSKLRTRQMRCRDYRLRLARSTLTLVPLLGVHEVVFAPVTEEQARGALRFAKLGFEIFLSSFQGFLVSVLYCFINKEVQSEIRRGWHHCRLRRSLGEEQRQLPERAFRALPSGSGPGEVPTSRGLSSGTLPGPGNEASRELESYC
# [5] = molecular target: isolated extracellular domain (ECD) of human GLP-1R, amino acids 24 to 145 (human) (UniProt P43220); assay: SPR
# Sequence of isolated extracellular domain (ECD) of human GLP-1R, amino acids 24 to 145 (human) (P43220 24-145): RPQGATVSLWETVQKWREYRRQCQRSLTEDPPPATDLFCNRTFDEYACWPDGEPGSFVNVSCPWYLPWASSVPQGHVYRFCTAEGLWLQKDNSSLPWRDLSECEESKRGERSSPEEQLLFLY
# [6] = molecular target: human GLP-1R expressed in HEK293 cells (human) (UniProt P43220); conditions: ligand
# Sequence of mouse GLP-1R, endogenous in pancreatic islets (mouse (endogenous in pancreatic islets)) (O35659 22-463): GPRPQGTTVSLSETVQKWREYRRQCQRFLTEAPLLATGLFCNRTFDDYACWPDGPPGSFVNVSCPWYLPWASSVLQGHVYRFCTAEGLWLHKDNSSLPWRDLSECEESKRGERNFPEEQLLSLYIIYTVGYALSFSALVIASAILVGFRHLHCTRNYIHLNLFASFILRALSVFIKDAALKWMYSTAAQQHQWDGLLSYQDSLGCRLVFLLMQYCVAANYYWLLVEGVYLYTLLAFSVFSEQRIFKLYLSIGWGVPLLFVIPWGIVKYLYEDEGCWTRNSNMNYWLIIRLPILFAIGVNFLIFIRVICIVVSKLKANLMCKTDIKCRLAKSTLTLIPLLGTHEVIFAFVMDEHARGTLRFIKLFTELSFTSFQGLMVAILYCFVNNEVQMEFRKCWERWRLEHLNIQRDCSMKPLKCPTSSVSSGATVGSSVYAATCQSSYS
# Sequence of human GLP-1R expressed in HEK293 cells (human) (P43220 24-463): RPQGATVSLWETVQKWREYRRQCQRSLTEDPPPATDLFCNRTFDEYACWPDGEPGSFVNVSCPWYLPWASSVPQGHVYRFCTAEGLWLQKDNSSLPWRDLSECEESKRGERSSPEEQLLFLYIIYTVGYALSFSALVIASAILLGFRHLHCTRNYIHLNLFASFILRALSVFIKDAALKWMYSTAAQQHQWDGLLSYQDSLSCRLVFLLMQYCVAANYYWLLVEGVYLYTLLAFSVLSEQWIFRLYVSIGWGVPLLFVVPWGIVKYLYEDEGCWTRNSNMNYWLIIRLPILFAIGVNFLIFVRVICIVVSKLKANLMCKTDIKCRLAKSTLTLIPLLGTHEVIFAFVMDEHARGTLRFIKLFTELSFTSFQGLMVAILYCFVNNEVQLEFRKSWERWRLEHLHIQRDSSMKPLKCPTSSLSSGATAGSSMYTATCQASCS
Substance,"intracellular fluorescence intensity of islet cells from wild-type mice, 30 nM labelled ligand for 30 min, confocal microscopy; negligible (≤4.0) after exendin-4(9-39) or in Glp-1r null islets [1]",other [2] [fold],Kd [3] [nM],also measured
GLP-1^AF647 (ligand),104,–,–,–
tirzepatide (LY3298176) (peptide),–,5,4200,–
tirzepatide analog lacking the lipid moiety (TZP^ΔC20) (peptide),–,5,1700,other [4]: 4 fold; Kd [5]: 111 nM
tirzepatide^AF647 (peptide),46,–,–,–
"tirzepatide^ΔC20,Y1H-AF647 (peptide)",85.3,–,–,–
glucagon-like peptide-1 (GLP-1),–,–,–,Ki [6]: 0.594 nM
